# Laboratory results published in patent US20220195055A1 (SHANDONG BOAN BIOTECHNOLOGY, published 2022).
# Where a chain is given by its changes, count along the chain named. Where two headings read alike, the source gives them in different places.
# T1: CD25 on cells (SU-DHL-1 target cells; PBMC) (UniProt P01589 22-272, limits assumed)
# T1 sequence (looked up): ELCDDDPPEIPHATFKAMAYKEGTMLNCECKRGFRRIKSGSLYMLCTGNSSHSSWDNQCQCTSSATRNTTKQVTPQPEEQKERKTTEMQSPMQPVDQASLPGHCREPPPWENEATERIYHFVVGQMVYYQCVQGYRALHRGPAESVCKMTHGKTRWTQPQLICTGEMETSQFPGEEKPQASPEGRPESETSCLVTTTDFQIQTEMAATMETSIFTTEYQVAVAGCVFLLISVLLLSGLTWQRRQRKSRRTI
# T2: CD25 protein (Sino Biological, 10165-H08H) (UniProt P01589 22-213)
# T2 construct: Bought recombinant protein; It speaks elsewhere of human CD25; also called antigen CD25; IL-2Rα
# T2 sequence (looked up): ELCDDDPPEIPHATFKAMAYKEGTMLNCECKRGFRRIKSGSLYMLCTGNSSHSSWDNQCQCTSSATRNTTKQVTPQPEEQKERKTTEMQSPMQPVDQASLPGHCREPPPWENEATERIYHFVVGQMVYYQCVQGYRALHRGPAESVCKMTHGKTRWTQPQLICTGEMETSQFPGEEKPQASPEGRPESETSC
# B1: CD25Q11-BA422-IgG1 (antibody, V domains shown)
# VH: QVQLVQSGAEVKKPGSSVKVSCKASGGTFSSSAISWVRQAPGQGLDWMGRIIPLLNIADYAQKFQGRVTFTADKSTNTAYMELSSLRSEDTAVYYCARDGSGYDSNYWYFDLWGRGTLVTVSS
# VL: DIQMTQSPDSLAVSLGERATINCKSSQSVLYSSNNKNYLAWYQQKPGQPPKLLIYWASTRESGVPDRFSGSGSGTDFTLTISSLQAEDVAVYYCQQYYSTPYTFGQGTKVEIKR
# notes: IgG1 expressed in HEK293
# B2: CD25Q11-CA36-IgG1 (antibody, V domains shown)
# VH: QVQLVQSGAEVKQPGSSVKVSCKTSGGTFGSSAINWVRQAPGQGLEWMGRIIPIFGVSNFAQKFQGRVTITADKSTNTAYMELSSLRSEDTAVYYCARDGSGYDSNYWYFDLWGRGTLVTVSS
# VL: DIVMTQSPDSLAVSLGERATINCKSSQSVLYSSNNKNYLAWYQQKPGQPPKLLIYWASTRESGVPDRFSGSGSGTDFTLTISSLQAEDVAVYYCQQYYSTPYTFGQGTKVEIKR
# notes: IgG1 expressed in HEK293
# B3: CD25Q14-CA721-IgG1 (antibody, V domains shown)
# VH: QVQLVQSGAEVKKPGESLKISCKGSGYSFANYWIVWVRQMPGKGLEWMGIIYPDDSETRYSPSFQGQVTFSADKSISTAYLQWSSLKASDTAMYYCTRGPYYSDYWGQGTLVTVSS
# VL: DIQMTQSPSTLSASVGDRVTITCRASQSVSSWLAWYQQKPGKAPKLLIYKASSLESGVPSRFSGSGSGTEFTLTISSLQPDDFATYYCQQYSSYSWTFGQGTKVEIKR
# notes: IgG1 expressed in HEK293
# B4: CD25Q14-BA448-IgG1 (antibody, V domains shown)
# VH: B3 VH with Q1E, S28N, I51T
# VL: DIQMTQSPSTLSASVGDRVTITCRASQSISSWLAWYQQKPGKAPKLLIYKASSLESGVPSRFSGSGSGTEFTLTISSLQPDDFATYYCQQYDRFSWTFGQGTKVEIKR
# notes: IgG1; The VH is copied as printed. 'YVVGQG' near its end may be a misprint of 'YWGQG'
# B5: CD25Q14-CA707-IgG1 (antibody, V domains shown)
# VH: EVQLVQSGAEVKKPGESLKISCKGSGYSFSNYWIGWVRQMPGKGLEWMGIISPGDSTTKYSPSFQGQVTFSADKSTSTAYLQWSSLQASDTAMYYCVRGPYYLDYWGQGTLVTVSS
# VL: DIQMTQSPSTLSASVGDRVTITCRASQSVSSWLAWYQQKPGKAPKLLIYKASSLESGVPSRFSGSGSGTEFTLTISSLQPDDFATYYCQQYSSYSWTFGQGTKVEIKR
# notes: IgG1 expressed in HEK293
# B6: CD25Q3-BA125-IgG1 (antibody, V domains shown)
# VH: B3 VH with Q1E
# VL: B4 VL with S28I, S31G, W32Y, T69A, D92N, R93S, F94Y, S95T
# notes: IgG1; also called CD25Q2-BA125
# B7: CD25Q14-CA705-IgG1 (antibody, V domains shown)
# VH: B3 VH with Q1E
# VL: DIQMTQSPSTLSASVGDRVSITCRASQSIGSWLAWYQQKPGKAPKLLIFEASNLESGVPSRFSGSGSGTEFTLTISNLQPDDFATYYCQQYNSYSLTFGGGTKVEIKR
# notes: IgG1 expressed in HEK293
# B8: CD25Q14-BA443-IgG1 (antibody, V domains shown)
# VH: B5 VH
# VL: DIQMTQSPSTLSASVGDRVTITCRASQSVSGYLAWYQQKPGKAPKLLIYKTSSLESGVPSRFSGSGSGTDFTLTISSLQAEDVAVYYCQQYYSTPWTFGQGTKVEIKR
# notes: IgG1 expressed in HEK293
# B9: CD25Q14-BA458-IgG1 (antibody, V domains shown)
# VH: B5 VH
# VL: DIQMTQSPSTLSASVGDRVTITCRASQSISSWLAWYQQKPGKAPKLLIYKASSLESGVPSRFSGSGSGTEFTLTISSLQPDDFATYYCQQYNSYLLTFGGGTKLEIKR
# notes: IgG1 expressed in HEK293
# B10: CD25Q11-BA428-IgG1 (antibody, V domains shown)
# VH: B3 VH with A30T, Y52S, D54G, E57T, T97A, R98I, S103L, D104E
# VL: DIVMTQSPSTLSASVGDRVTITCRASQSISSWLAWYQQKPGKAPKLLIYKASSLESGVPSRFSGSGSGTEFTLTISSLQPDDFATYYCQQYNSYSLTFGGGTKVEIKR
# notes: IgG1 expressed in HEK293
# B11: CD25Q11-BA406-IgG1 (antibody, V domains shown)
# VH: EVQLVQSGAEVKKPGESLKISCKGSGYSFTNYWIAWVRQMPGKGLEWMGIIYPGDSVTRYSPSFQGQVTISADKSINTAYLQWSSLRASDTAMYYCARGPYYFEYWGQGTLVTVSS
# VL: B4 VL with Q3V, W32F, K42R, K45E, S53T, G57R, D81E, D92K, R93S, F98V
# notes: IgG1 expressed in HEK293
# B12: CD25Q11-BA415-IgG1 (antibody, V domains shown)
# VH: QVQLVQSGTEVKKPGESLKISCEGVGYSFTTYWIGWVRQMPGKGLEWMGIIYPGDSITRYSPSFQGQVTISADKSINTAYLQWSSLMASDTAMYYCVRGPHWGDYWGQGTLVTVSS
# VL: B4 VL with S31T, T85A, D92S, R93S, F94Y
# notes: IgG1 expressed in HEK293
# B13: CD25Q11-BA402-IgG1 (antibody, V domains shown)
# VH: B11 VH with E1Q, T30S, V57A
# VL: B4 VL with Q3V, I21L, W32Y, S53T, Q90H, D92N, R93S, F94Y, W96V, Q100G
# notes: IgG1 expressed in HEK293
# B14: CD25Q2-BA9-IgG1 (antibody, V domains shown)
# VH: QVQLQQWGAGLLKPSETLSLTCAVYGGSFSGYYWSWIRQPPGKGLEWIGEIDHSGSTIYNPSLKSRVTISLDTSKNQFSLKLSSVTAADTALYYCARGEAFDIWGQGTMVTVSS
# VL: B4 VL with Q3V, I29L, S30R, W32Y, D92N, R93S, F94Y
# notes: IgG1 expressed in HEK293; also called CD25Q-BA9-IgG1
# B15: CD25Q11-BA410-IgG1 (antibody, V domains shown)
# VH: B14 VH with Y32H, P40S, S56N, T57A, L71I, L92V, I103L
# VL: not shown
# notes: IgG1 expressed in HEK293
# What was measured:
# [1] = biological target: T1, CD25 on cells (SU-DHL-1 target cells; …); assay: cell-based or functional assay
# [2] = biological target: T2, CD25 protein (Sino Biological, …); assay: ELISA; CD25 protein coated in a dilution series, antibody at one fixed concentration, anti-human IgG/HRP
# Source text: (§1) The results are shown in FIG. 2A to FIG. 2E and Table 2 to Table 6.
# [3] = biological target: T1, CD25 on cells (SU-DHL-1 target cells; …); assay: cell-based or functional assay; remark: listed apart in the source
# [4] = biological target: T2, CD25 protein (Sino Biological, …); assay: ELISA; CD25 protein coated in a dilution series, antibody at one fixed concentration, anti-human IgG/HRP; remark: listed apart in the source
# Source text: as §1
# [5] = biological target: T2, CD25 protein (Sino Biological, …); assay: SPR (BIAcore 8K); antibody captured by anti-human IgG Fc, CD25 protein as analyte, 1:1 model
# Experimental: Antibody binding kinetics uses BIAcore8K instrument based on surface plasmon resonance (SRP) technology to measure. Anti-human IgG antibody amino was coupled to a CMS biosensor chip by the GE anti Human IgG Fc amino coupling kit (GE, cat # BR-1008-39) to obtain approximately 1000 response units (RU). For kinetic measurements, the CD25 protein (Sino Biological, 10165-H08H) was diluted 2-fold continuously with HBS-EP+1×(GE, BR-1008-26) buffer, starting at 50 nM, being diluted 2-fold for 4 concentration gradients and setting 0 concentration. The antibody to be detected: 2 μg/ml, sample injection time 70 s, flow rate 5 μL/min, stable for 5 s; CD25 protein: binding for 60 s, flow rate 30 μL/min, dissociation for 450 s; regeneration: regeneration was performed for 30 s with 3M MgCl₂ buffer, Startup 3 times. The association constant (ka) and dissociation constant (kd) were calculated using a simple one-to-one Languir binding model (BIAcore Evaluation Software version 3.2), and the equilibrium dissociation constant (KD) was calculated by the ratio kd/ka.
# [6] = biological target: T1, CD25 on cells (SU-DHL-1 target cells; …); assay: cell-based or functional assay; remark: listed apart in the source
# [7] = biological target: T2, CD25 protein (Sino Biological, …); assay: ELISA; CD25 protein coated in a dilution series, antibody at one fixed concentration, anti-human IgG/HRP; remark: listed apart in the source
# Source text: as §1
# [8] = biological target: T2, CD25 protein (Sino Biological, …); assay: as above; remark: listed apart in the source
# Source text: as §1
binder,measurement,setting,value
B1,"EC50 of simulated killing activity (Jurkat effector reporter cells, SU-DHL-1 target cells, luminescence)",[1],836 ng/mL
same,EC50,[2],1.3 ng/mL
same,"% PSTAT5 in CD3 positive T cells of PBMC after IL2, with 10 µg/mL antibody",[3],18.1%
B2,EC50,[4],2.41 ng/mL
same,Kd,[5],1610 pM
same,koff,[5],9.66e-05 s⁻¹
same,kon,[5],60200 M⁻¹ s⁻¹
B3,"EC50 of simulated killing activity (Jurkat effector reporter cells, SU-DHL-1 target cells, luminescence)",[6],288 ng/mL
same,EC50,[7],3.25 ng/mL
same,Kd,[5],536 pM
same,koff,[5],0.000365 s⁻¹
same,kon,[5],680000 M⁻¹ s⁻¹
B4,EC50,[2],2.68 ng/mL
same,Kd,[5],904 pM
same,koff,[5],0.000531 s⁻¹
same,kon,[5],587000 M⁻¹ s⁻¹
B5,"EC50 of simulated killing activity (Jurkat effector reporter cells, SU-DHL-1 target cells, luminescence)",[6],248 ng/mL
same,EC50,[7],6.42 ng/mL
same,Kd,[5],2850 pM
same,koff,[5],0.000944 s⁻¹
same,kon,[5],331000 M⁻¹ s⁻¹
B6,"EC50 of simulated killing activity (Jurkat effector reporter cells, SU-DHL-1 target cells, luminescence)",[1],251 ng/mL
same,EC50,[8],1.61 ng/mL
same,Kd,[5],431 pM
same,koff,[5],0.000301 s⁻¹
same,kon,[5],699000 M⁻¹ s⁻¹
B7,EC50,[4],4.77 ng/mL
same,"EC50 of simulated killing activity (Jurkat effector reporter cells, SU-DHL-1 target cells, luminescence)",[1],409 ng/mL
same,Kd,[5],1970 pM
same,koff,[5],0.000752 s⁻¹
same,kon,[5],381000 M⁻¹ s⁻¹
B8,EC50,[2],1.06 ng/mL
same,"EC50 of simulated killing activity (Jurkat effector reporter cells, SU-DHL-1 target cells, luminescence)",[6],360 ng/mL
same,Kd,[5],1480 pM
same,koff,[5],0.000201 s⁻¹
same,kon,[5],136000 M⁻¹ s⁻¹
B9,EC50,[2],1 ng/mL
same,"EC50 of simulated killing activity (Jurkat effector reporter cells, SU-DHL-1 target cells, luminescence)",[6],266 ng/mL
same,Kd,[5],596 pM
same,koff,[5],0.000216 s⁻¹
same,kon,[5],362000 M⁻¹ s⁻¹
B10,"EC50 of simulated killing activity (Jurkat effector reporter cells, SU-DHL-1 target cells, luminescence)",[1],217 ng/mL
same,EC50,[2],0.597 ng/mL
same,Kd,[5],379 pM
same,koff,[5],0.00021 s⁻¹
same,kon,[5],555000 M⁻¹ s⁻¹
B11,EC50,[4],0.651 ng/mL
B12,EC50,[4],0.941 ng/mL
same,"EC50 of simulated killing activity (Jurkat effector reporter cells, SU-DHL-1 target cells, luminescence)",[6],233 ng/mL
same,Kd,[5],614 pM
same,koff,[5],0.000199 s⁻¹
same,kon,[5],323000 M⁻¹ s⁻¹
B13,"EC50 of simulated killing activity (Jurkat effector reporter cells, SU-DHL-1 target cells, luminescence)",[1],443 ng/mL
same,EC50,[8],0.674 ng/mL
same,Kd,[5],607 pM
same,koff,[5],0.000212 s⁻¹
same,kon,[5],350000 M⁻¹ s⁻¹
B14,"EC50 of simulated killing activity (Jurkat effector reporter cells, SU-DHL-1 target cells, luminescence)",[1],236 ng/mL
same,"% PSTAT5 in CD3 positive T cells of PBMC after IL2, with 10 µg/mL antibody",[3],26.1%
same,EC50,[8],3.33 ng/mL
same,Kd,[5],843 pM
same,koff,[5],0.000586 s⁻¹
same,kon,[5],696000 M⁻¹ s⁻¹
B15,EC50,[4],16.8 ng/mL
same,"EC50 of simulated killing activity (Jurkat effector reporter cells, SU-DHL-1 target cells, luminescence)",[1],215 ng/mL
same,"% PSTAT5 in CD3 positive T cells of PBMC after IL2, with 10 µg/mL antibody",[3],16.8%
same,Kd,[5],4810 pM
same,koff,[5],0.00674 s⁻¹
same,kon,[5],1.4e+06 M⁻¹ s⁻¹
